{
  "source": "paper PMC2266796",
  "about": "“The Assembly of the Plasmodial PLP Synthase Complex Follows a Defined Course” (PLoS ONE, 2008)",
  "binders": {"B1": {"name": "PfPdx2HIS wild-type (Plasmodium falciparum Pdx2 with C-terminal 6x His-tag) (enzyme)", "chain": "MSEITIGVLSLQGDFEPHINHFIKLQIPSLNIIQVRNVHDLGLCDGLVIPGGESTTVRRCCAYENDTLYNALVHFIHVLKKPIWGTCAGCILLSKNVENIKLYSNFGNKFSFGGLDITICRNFYGSQNDSFICSLNIISDSSAFKKDLTAACIRAPYIREILSDEVKVLATFSHESYGPNIIAAVEQNNCLGTVFHPELLPHTAFQQYFYEKVKNYKYS"}, "B2": {"name": "PfPdx1 wild-type (Plasmodium falciparum Pdx1, Strep-tagged) (enzyme, P. falciparum, UniProt C6KT50 1-301, looked up)", "chain": "MENHKDDAVLLKHGWCEMLKGGVIMDVKSVEQAKIAEEAGAIGVMVLENIPSELRNKEGVARSVDPSKVEEIKKCVSINVLAKVRIGHFVEAQILEELKIDMIDESEVLTIADEMHHIDKHKFKTPFVCGCTNLGEALRRISEGASMIRTKGEAGTGNIIEAIKHIRTVNNEIKYLCSLSDSEVYHFAKKINAPIDLVLLTKKLKRLPVVNFAAGGVATPADAAMCMQLGMDGVFVGSGIFESENPRKMAASIVSAVSNFNNPKILLDVSMNLGKAMCGSTRVSDKWKNKNEEHTKFLTPQ", "notes": "molecular mass used for light scattering 34.2 kDa; also called PfPdx1 WT; plasmodial Pdx1; source: E. coli BLR (DE3); purified (Strep-Tactin) for light scattering; cell homogenate for co-purification; copies: 12"}, "B3": {"name": "PfPdx1 K151A (enzyme)", "chain": "B2 chain with K151A", "notes": "Pdx1 of Plasmodium falciparum in pASK-IBA3, point mutant; source: E. coli BLR (DE3); purified (Strep-Tactin) for light scattering; cell homogenate for co-purification"}, "B4": {"name": "PfPdx1 DKK (D26A/K83A/K151A) triple mutant (enzyme)", "chain": "B2 chain with D26A, K83A, K151A", "notes": "Pdx1 of Plasmodium falciparum in pASK-IBA3, triple mutant; Hexamer without additive; about half dodecamer with 10 mM glutamine; also called DKK to AAA (D26/K83/K151); DKK mutant; source: E. coli BLR (DE3); purified (Strep-Tactin) for light scattering; cell homogenate for co-purification"}},
  "key": {"[1]": {"biological_target": "PfPdx1 ERR (E136A/R139A/R140A) triple mutant (P. falciparum, UniProt C6KT50 1-301, E136 to alanine | R139 to alanine | R140 to alanine)", "test": "cell-based or functional assay"}, "[2]": {"biological_target": "B4", "test": "cell-based or functional assay"}, "PfPdx1 K83A": {"biological_target": "PfPdx1 K83A (P. falciparum, UniProt C6KT50 1-301, K83A)", "test": "cell-based or functional assay"}, "PfPdx1 K151A": {"biological_target": "B3", "test": "cell-based or functional assay"}, "PfPdx1 D26A": {"biological_target": "PfPdx1 D26A (P. falciparum, UniProt C6KT50 1-301, D26A)", "test": "cell-based or functional assay"}, "[3]": {"biological_target": "the molecule itself", "test": "SEC-MALS; 100 ug purified Strep-tagged PfPdx1 on Superdex 200 10/30 with static light scattering (miniDAWN Tristar); 100 mM Tris-HCl pH 8.0, 150 mM NaCl, no amino acid added"}, "[4]": {"biological_target": "the molecule itself", "test": "SEC-MALS; as a2, with 10 mM glutamine in the elution buffer"}},
  "note": "Positions count from the first letter of the chain named. In names and notes the source's numbering stands.",
  "data": [
    {"binder": "B1", "values": [
      {"measurement": "glutaminase activity of PfPdx2 mixed equimolar with the PfPdx1 variant", "setting": "[1]", "value": 286, "unit": "mU mg^−1"},
      {"measurement": "glutaminase activity of PfPdx2 mixed equimolar with the PfPdx1 variant", "setting": "[2]", "value": 274, "unit": "mU mg^−1"},
      {"measurement": "glutaminase activity of PfPdx2 mixed equimolar with the PfPdx1 variant", "setting": "PfPdx1 K83A", "value": 291, "unit": "mU mg^−1"},
      {"measurement": "glutaminase activity of PfPdx2 mixed equimolar with the PfPdx1 variant", "setting": "PfPdx1 K151A", "value": 251, "unit": "mU mg^−1"},
      {"measurement": "glutaminase activity of PfPdx2 mixed equimolar with the PfPdx1 variant", "setting": "PfPdx1 D26A", "value": 285, "unit": "mU mg^−1"}
    ]},
    {"binder": "B2", "values": [
      {"measurement": "stoichiometry N", "setting": "[3]", "value": 12}
    ]},
    {"binder": "B3", "values": [
      {"measurement": "stoichiometry N", "setting": "[3]", "value": 6}
    ]},
    {"binder": "B4", "values": [
      {"measurement": "stoichiometry N", "setting": "[4]", "value": 12},
      {"measurement": "stoichiometry N", "setting": "[3]", "value": 6}
    ]}
  ]
}
